Experiments:
Assay in all cases: EMSA
nsp8 = nsp8 (SARS-CoV-2, UniProt P0DTD1 3943-4140)
nsp7;nsp8ΔN = nsp7;nsp8ΔN (SARS-CoV-2;SARS-CoV-2, UniProt P0DTD1;P0DTD1 3860-3942;4019-4140, |)
nsp8ΔN = nsp8ΔN (SARS-CoV-2, UniProt P0DTD1 4019-4140)
nsp7;nsp8 = nsp7;nsp8 (SARS-CoV-2;SARS-CoV-2, UniProt P0DTD1;P0DTD1 3860-3942;3943-4140, |)
nsp7 = nsp7 (SARS-CoV-2, UniProt P0DTD1 3860-3942)

B1: 12-mer ssRNA (FAM, EMSA) (ssRNA)
RNA: GCUUUGAUUUCG
nsp8
  binding result: binds
nsp7;nsp8ΔN
  binding result: no binding
nsp8ΔN
  binding result: no binding
nsp7;nsp8
  binding result: binds
nsp7
  binding result: no binding

— publication PMC7980517
